1 protein from doi:10.1101/2023.10.05.561114, “Conditional Requirement for Dimerization of the Membrane-Binding Module of BTK” (bioRxiv, 2023) can be followed below.

This data set deals with the molecule itself. The experiment in a line: fluorescence correlation spectroscopy (FCS); protein adsorbed on supported lipid bilayers with 96% DOPC and 4% PIP3; two-dimensional diffusion rate measured against surface density; fit to a 2D diffusion model; imaging buffer HBSS with 0.01% w/v beta-casein, with scavenging mixture.

B1: BTK PH–TH module (residues 1–171), wild type, with C-terminal mNeonGreen (domain or fragment, human, UniProt Q06187 1-171, looked up)
chain: MAAVILESIFLKRSQQKKKTSPLNFKKRLFLLTVHKLSYYEYDFERGRRGSKKGSIDVEKITCVETVVPEKNPPPERQIPRRGEESSEMEQISIIERFPYPFQVVYDEGPLYVFSPTEELRKRWIHQLKNVIRYNSDLVQKYHPCFWIDGQYLCCSQTAKNAMGCQILENR
notes: Bruton's tyrosine kinase (BTK), human, pleckstrin-homology and tec-homology domains (PH–TH module), residues 1–171; ZnCl2 was added during expression; also called PH–TH^WT; source: E. coli BL21-DE3, purified (HisTrap, SUMO protease cleavage, second HisTrap, Superdex 75); not shown: His6, N-terminal, cleaved; SUMO, N-terminal, cleaved; mNeonGreen, C-terminal, kept
With B1, the binding result is “binds”.
